Laboratory results published in patent USRE44022 (COMMISSARIAT A L ENERGIE ATOMIQUE, dated 2013).
Square brackets hold non-standard residues; d marks the D form.

B1: P11 (peptide)
peptide: cyclo([dF]PQIMRIKPHQGQHIGE)
SMILES: CC[C@H](C)[C@@H]1NC(=O)[C@H](Cc2c[nH]cn2)NC(=O)[C@H](CCC(N)=O)NC(=O)CNC(=O)[C@H](CCC(N)=O)NC(=O)[C@H](Cc2c[nH]cn2)NC(=O)[C@@H]2CCCN2C(=O)[C@H](CCCCN)NC(=O)[C@H]([C@@H](C)CC)NC(=O)[C@H](CCCNC(=N)N)NC(=O)[C@H](CCSC)NC(=O)[C@H]([C@@H](C)CC)NC(=O)[C@H](CCC(N)=O)NC(=O)[C@@H]2CCCN2C(=O)[C@@H](Cc2ccccc2)NC(=O)[C@H](CCC(=O)O)NC(=O)CNC1=O
notes: Cyclopeptide; 6); also called P11 (cyclic) peptide
B2: P20 (peptide)
peptide: cyclo([dF]PQIMRIKPHQGQHIG)
SMILES: CC[C@H](C)[C@@H]1NC(=O)[C@H](Cc2c[nH]cn2)NC(=O)[C@H](CCC(N)=O)NC(=O)CNC(=O)[C@H](CCC(N)=O)NC(=O)[C@H](Cc2c[nH]cn2)NC(=O)[C@@H]2CCCN2C(=O)[C@H](CCCCN)NC(=O)[C@H]([C@@H](C)CC)NC(=O)[C@H](CCCNC(=N)N)NC(=O)[C@H](CCSC)NC(=O)[C@H]([C@@H](C)CC)NC(=O)[C@H](CCC(N)=O)NC(=O)[C@@H]2CCCN2C(=O)[C@@H](Cc2ccccc2)NC(=O)CNC1=O
notes: Cyclopeptide
B3: P24 (peptide)
peptide: GRIKPH
modifications: cyclic (cyclo, ends of the linear peptide coupled)
notes: Cyclopeptide; also called cyclo(Gly-Arg-Ile-Lys-Pro-His)
B4: P23 (peptide)
peptide: cyclo([dY]PRIKPHQ)
SMILES: CC[C@H](C)[C@@H]1NC(=O)[C@H](CCCNC(=N)N)NC(=O)[C@@H]2CCCN2C(=O)[C@@H](Cc2ccc(O)cc2)NC(=O)[C@H](CCC(N)=O)NC(=O)[C@H](Cc2c[nH]cn2)NC(=O)[C@@H]2CCCN2C(=O)[C@H](CCCCN)NC1=O
B5: P21 (peptide)
peptide: cyclo([dF]PIMRIKPHQGQHI)
SMILES: CC[C@H](C)[C@@H]1NC(=O)[C@H](CCCNC(=N)N)NC(=O)[C@H](CCSC)NC(=O)[C@H]([C@@H](C)CC)NC(=O)[C@@H]2CCCN2C(=O)[C@@H](Cc2ccccc2)NC(=O)[C@H]([C@@H](C)CC)NC(=O)[C@H](Cc2c[nH]cn2)NC(=O)[C@H](CCC(N)=O)NC(=O)CNC(=O)[C@H](CCC(N)=O)NC(=O)[C@H](Cc2c[nH]cn2)NC(=O)[C@@H]2CCCN2C(=O)[C@H](CCCCN)NC1=O
notes: Cyclopeptide
B6: P16 (peptide)
peptide: RIKPHQG
modifications: cyclic (cyclo, ends of the linear peptide coupled)
notes: Cyclopeptide; also called cyclo(Arg-Ile-Lys-Pro-His-Gln-Gly)

Assays:
[1] = biological target: T1, KDR receptor (VEGFR-2) (UniProt P35968 20-1356, limits assumed); experiment: displacement of 125I-VEGF from CHOm VEGFR2 cells
T1 construct: whole, on cells; also called kinase domain receptor; VEGF receptor
T1 sequence (P35968 20-1356 limits assumed): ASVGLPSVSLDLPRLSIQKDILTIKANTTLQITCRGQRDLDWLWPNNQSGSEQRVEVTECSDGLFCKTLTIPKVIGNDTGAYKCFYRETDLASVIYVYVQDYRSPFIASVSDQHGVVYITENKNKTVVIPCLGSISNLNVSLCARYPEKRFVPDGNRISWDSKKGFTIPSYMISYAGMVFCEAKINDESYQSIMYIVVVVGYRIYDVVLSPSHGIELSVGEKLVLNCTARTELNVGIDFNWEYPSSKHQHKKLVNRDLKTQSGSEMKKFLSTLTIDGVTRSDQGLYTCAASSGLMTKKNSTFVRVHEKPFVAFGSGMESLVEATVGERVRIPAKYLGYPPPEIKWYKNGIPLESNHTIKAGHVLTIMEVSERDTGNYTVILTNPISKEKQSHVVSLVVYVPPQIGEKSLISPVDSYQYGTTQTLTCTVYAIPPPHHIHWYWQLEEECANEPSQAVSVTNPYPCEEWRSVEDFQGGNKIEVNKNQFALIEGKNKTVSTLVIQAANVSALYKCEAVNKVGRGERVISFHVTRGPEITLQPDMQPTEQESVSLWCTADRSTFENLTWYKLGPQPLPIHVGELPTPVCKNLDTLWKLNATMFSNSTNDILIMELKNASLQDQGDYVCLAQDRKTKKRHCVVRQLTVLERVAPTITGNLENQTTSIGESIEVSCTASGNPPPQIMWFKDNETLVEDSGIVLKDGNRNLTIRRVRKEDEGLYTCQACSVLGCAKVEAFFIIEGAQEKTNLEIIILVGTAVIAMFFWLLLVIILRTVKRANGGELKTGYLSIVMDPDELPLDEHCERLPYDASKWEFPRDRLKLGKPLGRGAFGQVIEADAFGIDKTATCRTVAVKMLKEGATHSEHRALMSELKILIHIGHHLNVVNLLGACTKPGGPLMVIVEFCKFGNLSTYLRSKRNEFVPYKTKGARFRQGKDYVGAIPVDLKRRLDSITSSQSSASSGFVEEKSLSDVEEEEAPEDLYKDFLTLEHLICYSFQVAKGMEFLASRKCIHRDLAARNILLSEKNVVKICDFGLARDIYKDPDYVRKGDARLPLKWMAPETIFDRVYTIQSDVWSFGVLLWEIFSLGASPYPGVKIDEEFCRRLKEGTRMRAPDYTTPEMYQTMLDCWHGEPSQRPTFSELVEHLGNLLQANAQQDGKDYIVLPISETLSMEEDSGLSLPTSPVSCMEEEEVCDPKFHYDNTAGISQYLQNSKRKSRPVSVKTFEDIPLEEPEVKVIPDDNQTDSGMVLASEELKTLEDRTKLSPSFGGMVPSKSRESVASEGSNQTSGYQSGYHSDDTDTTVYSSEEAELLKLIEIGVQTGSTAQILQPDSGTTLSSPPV

[2] = biological target: T1, KDR receptor (VEGFR-2); experiment: cell-based or functional assay
[3] = biological target: KDR receptor (VEGFR-2) (UniProt P35968); experiment: displacement of 125I-VEGF from CHOm VEGFR2 cells
KDR receptor (VEGFR-2) (UniProt P35968), sequence (P35968 20-1356 limits assumed): as above

Row | Binder | IC50 [1] | other results
1 | B1 | 2 µM | Migration (IC50) [2]: 30 µM; Proliferation (IC50) [2]: 7 µM
2 | PRIKPHQGQH (cyclic (cyclo, ends of the linear peptide coupled), Cyclopeptide) [P9] | 300 µM | 
3 | GQIMRIKPHQGQHIGE (cyclic (cyclo, ends of the linear peptide coupled), Cyclopeptide) [P12] | 300 µM | 
4 | PRIKPHQG (cyclic (cyclo, ends of the linear peptide coupled), Cyclopeptide) [P17] | 10 µM | 
5 | B2 | 10 µM | 
6 | QIMRIKPHQGQHIGE (cyclic (cyclo, cyclised on the solid phase, method B), Cyclopeptide) [P19] | 5 µM | 
7 | B3 | 8 µM | 
8 | B4 |  | IC50 [3]: 8 µM
9 | B5 | 200 µM | 
10 | B6 | 32 µM | 
11 | GRIKPHQGH (cyclic (cyclo, ends of the linear peptide coupled), Cyclopeptide) [P8] | 200 µM | 
